Laboratory results from paper PMC6954420.
pKd: −log10 of the molar value.

Biological target: HP1α (mouse) (UniProt Q61686)
Experiment: BLI
Conditions: K+, BLI: 100 mM KCl, 50 mM NaCl, 20 mM Na phosphate, pH 8 (G4) or pH 7 (i-motif, dsDNA), room temp, 500 nM oligo or titration, EMSA: 50 mM Tris-HCl pH 7.5, 100 mM …

Sequence of HP1α (mouse) (Q61686 whole entry): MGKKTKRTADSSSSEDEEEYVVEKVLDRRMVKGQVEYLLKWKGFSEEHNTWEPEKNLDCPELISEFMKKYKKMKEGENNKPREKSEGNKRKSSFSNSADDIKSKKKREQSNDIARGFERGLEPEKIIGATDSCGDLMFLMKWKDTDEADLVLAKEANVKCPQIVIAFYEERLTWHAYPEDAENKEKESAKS

| Substance | pKd | pKd (Fig S2 gives error 0.4) |
| --- | --- | --- |
| TERRA22 | 6.03 | – |
| TERRA45 | – | 7.13 |
| TERRA96 | 8.60 | – |
